Reference: patent US5622828, “High-affinity oligonucleotide ligands to secretory phospholipase A2 (sPLA2)” (Nexstar Pharmaceuticals, Inc.)

Columns and labels:
[1] = target: T1, secretory phospholipase A2 (sPLA2) (Homo sapiens, UniProt P14555 P14555:21-144); test: filter; only low-affinity Kd2 listed; 5' G removed; TBSC, 37 C; conditions: tags: supplied by Eli Lilly
T1 sequence: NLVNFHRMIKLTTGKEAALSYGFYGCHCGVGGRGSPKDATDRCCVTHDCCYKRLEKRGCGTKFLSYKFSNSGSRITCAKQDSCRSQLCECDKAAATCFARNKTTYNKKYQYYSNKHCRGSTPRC

[2] = target: T1, secretory phospholipase A2 (sPLA2); test: filter; biphasic, Kd2 250 nM, mole fraction 0.30; TBSC, 37 C; conditions: tags: supplied by Eli Lilly
Procedure: (§1) The nitrocellulose filter partitioning method was used as described in SELEX Patent Applications to determine the affinity of RNA ligands for sPLA_2 and for other promins. Filter discs (nitrocellulose/cellulose acetate mixed matrix, 0.45 µm pore size, Millipore) were placed on a vacuum manifold and washed with 5 ml of TBSC buffer under vacuum. Reaction mixtures, containing ^32P labeled RNA pools and sPLA_2, were incubated in TBSC for 5 minutes at 37° C., filtered, and then immediately washed with 5 ml TBSC. The filters were air-dried and counted in a Beckman liquid scintillation counter without fluor.
(§2) The dissociation constants for representative members of families I–VI, orphan and other ligands were determined by nitrocellulose filter binding experiments and are listed in Table III. Unlike random RNA, all tested ligands from the 2'OH SELEXes bound biphasically.

[3] = target: T1, secretory phospholipase A2 (sPLA2); test: filter; biphasic, Kd2 300 nM, mole fraction 0.40; TBSC, 37 C; conditions: tags: supplied by Eli Lilly
Procedure: as §1, §2

[4] = target: pancreatic phospholipase A2 (bpPLA2) (Bos taurus, UniProt P00593 P00593:23-145); test: filter; specificity control, like random RNA; TBSC
Sequence of pancreatic phospholipase A2 (bpPLA2) (P00593 23-145, one chain of several): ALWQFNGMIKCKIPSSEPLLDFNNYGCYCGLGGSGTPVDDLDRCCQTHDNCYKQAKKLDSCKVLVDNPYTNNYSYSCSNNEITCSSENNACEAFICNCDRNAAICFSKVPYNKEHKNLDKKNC
Procedure: (§3) The affinity of sPLA_2 ligands 2, 72, 80, 87, NN19 and NN19.15 (SEQ ID NOs.:11, 20, 53, 54, 64, and 117, respectively) for proteins other than sPLA_2 was determined by nitrocellulose partitioning (Tables IV and V). Like sPLA_2, hen egg white lysozyme, bFGF and elastase are small, highly cationic proteins. Bovine pancreatic PLA_2 is an evolutionarily and structurally related enzyme. […] Specificity is particularly well illustrated by the affinities for bovine pancreatic PLA_2 which is 10^4-fold less than that for human sPLA_2.
(§4) *Standard binding experiments were performed to the specified target protein in TBSC and K_d's is calculated by curve fitting. The ligands bind no better than randomized RNA (30N1) to lysozyme (hen egg-white), human basic fibroblast growth factor basic (bFGF) and bovine pancreatic PLA₂. The sPLA₂ K_d that of the high affinity species.

[5] = target: lysozyme (egg white) (Gallus gallus, UniProt P00698 P00698:19-147); test: filter; specificity control, like random RNA; TBSC; conditions: tags: 6x crystallized
Sequence of lysozyme (egg white) (P00698 19-147, one chain of several): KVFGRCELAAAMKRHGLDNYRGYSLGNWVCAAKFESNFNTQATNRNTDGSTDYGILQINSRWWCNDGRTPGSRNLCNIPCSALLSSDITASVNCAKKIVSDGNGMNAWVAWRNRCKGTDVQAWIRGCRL
Procedure: as §3, §4

[6] = target: basic fibroblast growth factor (bFGF) (Homo sapiens, UniProt P09038 P09038:143-288); test: filter; specificity control, like random RNA; TBSC
Sequence of basic fibroblast growth factor (bFGF) (P09038 143-288, one chain of several): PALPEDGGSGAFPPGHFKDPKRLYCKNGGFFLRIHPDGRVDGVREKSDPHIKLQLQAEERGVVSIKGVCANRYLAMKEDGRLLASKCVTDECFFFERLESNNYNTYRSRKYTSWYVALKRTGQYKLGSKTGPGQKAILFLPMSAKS
Procedure: as §3, §4

[7] = target: T1, secretory phospholipase A2 (sPLA2); test: filter; biphasic, Kd2 450 nM, mole fraction 0.50; TBSC, 37 C; conditions: tags: supplied by Eli Lilly
Procedure: as §1, §2

[8] = target: T1, secretory phospholipase A2 (sPLA2); test: filter; biphasic, Kd2 840 nM, mole fraction 0.50; TBSC, 37 C; conditions: tags: supplied by Eli Lilly
Procedure: as §1, §2

[9] = target: T1, secretory phospholipase A2 (sPLA2); test: filter; biphasic, Kd2 33 nM, mole fraction 0.55; TBSC, 37 C; conditions: tags: supplied by Eli Lilly
Procedure: as §1, §2

[10] = target: T1, secretory phospholipase A2 (sPLA2); test: filter; biphasic, Kd2 1830 nM, mole fraction 0.50; TBSC, 37 C; conditions: tags: supplied by Eli Lilly
Procedure: as §1, §2

[11] = target: T1, secretory phospholipase A2 (sPLA2); test: filter; biphasic, Kd2 170 nM, mole fraction 0.30; TBSC, 37 C; conditions: tags: supplied by Eli Lilly
Procedure: as §1, §2

[12] = target: T1, secretory phospholipase A2 (sPLA2); test: filter; biphasic, Kd2 450 nM, mole fraction 0.35; TBSC, 37 C; conditions: tags: supplied by Eli Lilly
Procedure: as §1, §2

[13] = target: T1, secretory phospholipase A2 (sPLA2); test: filter; biphasic, Kd2 1320 nM, mole fraction 0.50; TBSC, 37 C; conditions: tags: supplied by Eli Lilly
Procedure: as §1, §2

[14] = target: T1, secretory phospholipase A2 (sPLA2); test: filter; biphasic, Kd2 130 nM, mole fraction 0.40; TBSC, 37 C; conditions: tags: supplied by Eli Lilly
Procedure: as §1, §2

[15] = target: T1, secretory phospholipase A2 (sPLA2); test: filter; biphasic, Kd2 52 nM, mole fraction 0.35; TBSC, 37 C; conditions: tags: supplied by Eli Lilly
Procedure: as §1, §2

[16] = target: T1, secretory phospholipase A2 (sPLA2); test: filter; biphasic, Kd2 360 nM, mole fraction 0.40; TBSC, 37 C; conditions: tags: supplied by Eli Lilly
Procedure: as §1, §2

[17] = target: T1, secretory phospholipase A2 (sPLA2); test: filter; biphasic, Kd2 310 nM, mole fraction 0.25; TBSC, 37 C; conditions: tags: supplied by Eli Lilly
Procedure: as §1, §2

[18] = target: T1, secretory phospholipase A2 (sPLA2); test: filter; biphasic, Kd2 170 nM, mole fraction 0.15; Table III prints SEQ 104, name matches SEQ 105; TBSC, 37 C; conditions: tags: supplied by Eli Lilly
Procedure: as §1, §2

[19] = target: T1, secretory phospholipase A2 (sPLA2); test: filter; biphasic, Kd2 530 nM, mole fraction 0.40; TBSC, 37 C; conditions: tags: supplied by Eli Lilly
Procedure: as §1, §2

[20] = target: T1, secretory phospholipase A2 (sPLA2); test: filter; biphasic, Kd2 720 nM, mole fraction 0.40; TBSC, 37 C; conditions: tags: supplied by Eli Lilly
Procedure: as §1, §2

[21] = target: T1, secretory phospholipase A2 (sPLA2); test: filter; biphasic, Kd2 180 nM, mole fraction 0.45; TBSC, 37 C; conditions: tags: supplied by Eli Lilly
Procedure: as §1, §2

[22] = target: T1, secretory phospholipase A2 (sPLA2); test: filter; biphasic, Kd2 170 nM, mole fraction 0.65; TBSC, 37 C; conditions: tags: supplied by Eli Lilly
Procedure: as §1, §2

[23] = target: T1, secretory phospholipase A2 (sPLA2); test: filter; biphasic, Kd2 740 nM, mole fraction 0.55; TBSC, 37 C; conditions: tags: supplied by Eli Lilly
Procedure: as §1, §2

[24] = target: T1, secretory phospholipase A2 (sPLA2); test: filter; biphasic, Kd2 110 nM, mole fraction 0.40; TBSC, 37 C; conditions: tags: supplied by Eli Lilly
Procedure: as §1, §2

[25] = target: T1, secretory phospholipase A2 (sPLA2); test: filter; biphasic, Kd2 300 nM, mole fraction 0.55; TBSC, 37 C; conditions: tags: supplied by Eli Lilly
Procedure: as §1, §2

[26] = target: T1, secretory phospholipase A2 (sPLA2); test: filter; biphasic, Kd2 62 nM, mole fraction 0.50; TBSC, 37 C; conditions: tags: supplied by Eli Lilly
Procedure: as §1, §2

B1: 87.4 (ssRNA)
RNA: GGAGCUCAGAAUAAACGCUCAAGCUCUGGGAUGAUGCCCACUGUCCAGCAUCUUCGACAUG
Kd [1]: 4350 nM

B2: 87.7 (ssRNA)
RNA: GGGAGCUCAGAAUAAACGCUCAAGCUCUGGGAUGAUGCCCACUGUCCAGCAUCUUCGACAUGUGUAGCUAAACAGCUUUAGGA
Kd [2]: 0.8 nM

B3: 80 (ssRNA)
RNA: GGGAGCUCAGAAUAAACGCUCAAGCUCUGGGAUGAUGCCCAGUGUCCAGCAUCUUCGACAUGAGGCCCGGAUCCGGC
Kd [3]: 1.6 nM | Kd [4]: 29000 nM | Kd [5]: 2700 nM | Kd [6]: 240 nM

B4: 87 (ssRNA)
RNA: GGGAGCUCAGAAUAAACGCUCAAGCUCUGGGAUGAUGCCCACUGUCCAGCAUCUUCGACAUGAGGCCCGGAUCCGGC
Kd [4]: 20000 nM | Kd [5]: 2300 nM | Kd [6]: 220 nM | Kd [7]: 0.8 nM

B5: 87F (ssRNA)
RNA: GGGAGCUCAGAAUAAACGCUCAAGCUCUGGGAUGAUGCCCACUGUCCAGCAUCUUCGACAUGAGGCCCGGAUCCGGC
modifications: 2'-F all C and U
Kd [8]: 1.2 nM

B6: 3 (ssRNA)
RNA: GGGAGCUCAGAAUAAACGCUCAAAGCUCAUCGUCUCGCAAGGCGUAUCCUAUUUCGACAUGAGGCCCGGAUCCGGC
Kd [9]: 1.9 nM

B7: 6t (ssRNA)
RNA: GGGAGCUCAGAAUAAACGCUCAAUGCCUCAUGCCAAUGUGGGAGGGUGGGUGGUUCGACAUGAGGCCCGGAUCCGGC
Kd [10]: 28 nM

B8: 83t (ssRNA)
RNA: GGGAGCUCAGAAUAAACGCUCAACGCCUCAUGCCAACGUGGGAGCGUGGGUGGUUCGACAUGAGGCCCGGAUCCGGC
Kd [11]: 10.5 nM

B9: 86t (ssRNA)
RNA: GGGAGCUCAGAAUAAACGCUCAACGCCUCAUGCCAAUGCGGGAGGGUGGGUGGUUCGACAUGAGGCCCGGAUCCGGC
Kd [12]: 2.8 nM

B10: 87.5 (ssRNA)
RNA: GGGAGCUAUAAACGCAGCUCUGGGAUGAUGCCCACUGUCCAGCAUCUUCGACAUG
Kd [13]: 3.1 nM

B11: 96 (ssRNA)
RNA: GGGAGCUCAGAAUAAACGCUCAAGACCUCUGCUUACAGUUCGGCUGAGACACUUCGACAUGAGGCCCGGAUCCGGC
Kd [14]: 0.9 nM

B12: 79 (ssRNA)
RNA: GGGAGCUCAGAAUAAACGCUCAAGACCUCUGCUUACAGCUCGGCUGAGACACUUCGACAUGAGGCCCGGAUCCGGC
Kd [15]: 1.7 nM

B13: 72t.2c (ssRNA)
RNA: GGGAUAAACGCUCAACUUACAGUUCGGCUGAGACGAAGAUCGACCUUCGACAU
Kd [16]: 5 nM

B14: 9t (ssRNA)
RNA: GGGAGCUCAGAAUAAACGCUCAACACGGGGGUGGGUGGGUGGCCGAGCGCUUGUUCGACAUGAGGCCCGGAUCCGGC
Kd [17]: 39.4 nM

GGGAAGACCUCUGCUUACAGCCCGGCUGAGACACUUCGACAUGAGGCC (ssRNA) [72.c]
Kd [18]: 4.6 nM

B15: 73t (ssRNA)
RNA: GGGAGCUCAGAAUAAACGCUCAACUUACAGUUCGGCUGAGAGAAGACGCAUACUUCGACAUGAGGCCCGGAUCCGGC
Kd [19]: 2.4 nM

B16: 87.3 (ssRNA)
RNA: GGGAGCUCAGAAUAAACGCUCAAGCUCUGGGAUGAUGCCCACUGUCCAGCAUCUUCGACAUG
Kd [20]: 0.8 nM

B17: 2 (ssRNA)
RNA: GGGAGCUCAGAAUAAACGCUCAAUCUCAUUGCUCGUCGCACGGCGUAACCUAUUUCGACAUGAGGCCCGGAUCCGGC
Kd [4]: 20000 nM | Kd [5]: 1700 nM | Kd [6]: 230 nM | Kd [21]: 1.7 nM

B18: 35t (ssRNA)
RNA: GGGAGCUCAGAAUAAACGCUCAAGGCUGGGUCUUUUACAGGUAAAGCUGAGAAUUCGACAUGAGGCCCGGAUCCGGC
Kd [22]: 2.4 nM

GGUCUCAUUGCUCGUCGCACGGCGUAACCUAUUUCGACAUGAG (ssRNA) [2.3]
Kd [23]: 2.6 nM

B19: 11t (ssRNA)
RNA: GGGAGCUCAGAAUAAACGCUCAACUUACGGGUAAAGCCGAGAAAAUGUAUUGCUUCGACAUGAGGCCCGGAUCCGGC
Kd [24]: 0.6 nM

B20: 4 (ssRNA)
RNA: GGGAGCUCAGAAUAAACGCUCAAUGUCUUACGGGUAAAGCCGAGAAAGUUUCCUUCGACAUGAGGCCCGGAUCCGGC
Kd [25]: 0.7 nM

B21: 89 (ssRNA)
RNA: GGGAGCUCAGAAUAAACGCUCAAAGUCUUACGGGUAAAGCCGAGAAAGUUUCCUUCGACAUGAGGCCCGGAUCCGGC
Kd [26]: 2.5 nM
